Measurements published in a protein production outcome set (Wang et al. 2014).

Experiment: label from the status in PepcDB records
In the case of “MQIFLLFLSFAKAIHKIILIYGETAFPTVCSALQIYSLMKLKTLICATTAFWACCSCTSGELSPVDYVDPFIGTGFHGHTYPGATVPFGAVQLSPDTRAGNWDACSGYHYNDTTLKGFSHTHLSGTGCIDLGDILFRPTTLKPDLTTESIYQPAAFSHKDEDASAGYYSVVLKEEGIKAELTVTAHAGMHRYTFSSGKEASIIIDLTHLLDNEYIYEAELEQTAANEITGMRRTRGWTDNQYVYFVAQFSKPFQAIDFIQNKKMVSAGVKLNGTDLQACLSFDNSNGEPVIAKVGLSIVSEKNARENLETEVIGFDFDAVRSAARSAWEQALSAITVKGGNTDDLKNFYTAMYHSMVVPNVVSDVNGEYRRHNMEIGQLPKGKVQYSTFSLWDTFRAWNPLMTLIDTTLVNNMINSFLDIYESSGELPIWPLSAGETGTMIGYHAVSVIADAYMKGIRGFDAEKALEAMVVSSEKNKKGADYYIQNGFIPSNIKKESISCLLEFAYDDWCIARMAQEMGKDDIYQKYIQRSQNYINVFDGNTKFFRPKRMDGNWETPFNPIEIGRAYTEATAWQYRFFVPHDVSGMAQLFGGKKEFITALDSIFTVESDVHGDLVDITGLIGQYVHGNEPSHHIAYLYDYVGQPWKTQEMTRRLLHEMYAPTPEGIIGNEDCGQMSGWYILSSLGIYSVCPGSNEFALTTPLFEKAVVNLANRKTLTILANNPKKNVYITKVELNGQPIDVNFITYAQLMEGGELRFTLSDKPNMERGVSSEASPYSYTKDEVVSIPYVDKDLNLFMDKVTVALATTTKDAEIRYTLDGSEPTEQSALYEQPFELDKTTLIKAKGFKEGLRSSRTLSISATKAELKAALSVNPTQNGTSYKYFEGTYQKVADVEKSPLLESGVMPEPSIKGAKQEDHFGYIFSGLINVPEDGVYTFQTRSDDGSVLYIHDEQVVNNDASHAAIPATGMVALKKGFHPYKLYYFEDYEGEYLSWAWKLPSAEKLAPIPASALFVK”, the protein production is reported as “failed”. With “MQITAAAQHDYQQAIAAYQAGEFEAAIAQLDRLLGDVPDWAAALGLQGLCYYCCDQRETGITLLRRAIALDPTDPTHFNNLGNLLQRQGHLTEALERLTQALAIDPTHVAARFNRAITLQKLGDPATALQDYQQLLEADPDNPEIRYNSAHAALAIGDWDFGLPAYEARCQQLQHFPEIEASLKLPRWQGQDLDQQTLLVWGEQGFGDRLMGARWIPLLRQRYPQARIVWQTSPSLVRLFQTLADDRLMVLAEGAELPVCDWQVPLLSLMLIFQSDRNRLPWHGPYFFPHKGDFLPASDRPRLGLVWSAGRNPAQSAEFAANKSCPLALLWSVLSVSGWDVVSLQVDEARQDLQTLSDPLLDLGSEIGDFQDTVDRLAHLDLLITVDTAIAHLGGMIGLPTWVLLPAVPDWRWELSGATTPWYPSLRLFRQPSPGDWSGAIAELQTALAEFQPAPQHWDYRGELSIADWIQAADRAFTAQNWPRAEWLIRQAVAIAPEEPSFHRALGRSLKQQGDYAGAAQALAIACELAPTQAEFWHERSSLEYYDNQLTAALNSLNQAIALQGATADHLISRGVLHYRLGQFPESCADYDAAAAIAPESPLLRCNRGFLQLHWGNWLQGWPDLEVRFDFQSDLDPFQYRQLAPAWQGEPLGQQTLLIWGEQGLGDHLLFCRWLPELRLQHPQAQLIFVTDPLLERLMQQLADDRLQICCLDEPVPACDRQVALMSLPAIAQTTPATVPWRGAYFQSSMPPLRCAETLQVGFVWASGKRSSPETARLYREKSCPLNELLPALLAVPAVDYYSFQVGADVAELQPWLEQSDRLFDLSEQLQDFQDTADWLAEMDVLISVDTAVANLAGMMALPVWTLLPEPANWRWGLTGHTTPWYPSMRLYRQTQRGNWSGAIAQIQQDLQQLSRDRDCLVT” the protein production was “failed”. In the case of “MQKIALCITGASGVIYGIKLLQVLEELDFSVDLVISRNAKVVLKEEHSLTFEEVLKGLKNVRIHEENDFTSPLASGSRLVHYRGVYVVPCSTNTLSCIANGINKNLIHRVGEVALKERVPLVLLVREAPYNEIHLENMLKITRMGGVVVPASPAFYHKPQSIDDMINFVVGKLLDVLRIEHNLYKRWRG”, the protein production is reported as “not failed”. With “MQKQLLLGVEAIAQAALDAGISGVYAYPGTPSTEITEHIQNSRMAKERNVHREWAANEKTAMESALGMSYAGKRALVCMKHVGMNVAADCFMNAAITGANGGMVIVAADDPSMHSSQNEQDSRVYGQFAMIPVMEPSNQQEAYDMTRLAFDLSERLGTPVMMRITTRLAHSRAGVVQTEPIGENELHLPEDKRQYVLLPGIAKKRYRILLDKQTDFVRESENSPYTEYVDAADKSKGIVACGIAYNYLMEAFKAQVPYPVLKVTQYPIPHKQMERLLNECGDIVVMEEGYPVVEQLLKGFPGLERIKGRLDGTLPRDGELNPDHVAKAFNIPVVEGEPIPDLVAARPPALCKGCSHRDVYDALNEVLTEYPNGRVFSDIGCYTLGALPPYEAINSCVDMGASITMAKGAADAGLFPAVSVIGDSTFTHSGITGLLDAINENSNITVIISDNESISMTGGQHSSAYGKVEAICRGIGVDPDHIRELLPVPKNHDELCSIIREEINYEGVSVIIPRRVCIQKHARDAKAAKRAKAKE” the protein production was “not failed”. In the case of “MQKSEGSGGTQLKNRATGNYDQRTSSSTQLKHRNAVQGSKSSLSTSSPESARKLHPRPSDKLNPKTINPFGEQSRVPSAFAAIYSKGGIPCRLVHGSVKHRLQWECPPESLSFDPLLITLAEGLRETKHPYTFVSKEGFRELLLVKGAPEKAIPLLPRLIPVLKAALVHSDDEVFERGLNALVQLSVVVGPSLNDHLKHLLTSGSLSIIKSKIPTYCSICC”, the protein production is reported as “failed”. For “MQKTLTSAIDIPEQMQNDWQNMLDILSNVINVPAALIMRIYDNDIKVFSSSSSTENPYIKGATEKLNQGLYCETVIEERQELTVFNALVDPEWRSNPDLKQNMIAYCGLPLYWPDNTPFGTLCILDKKENHFSPTYQKLMKTYQHSIEAQLNTLYQHADLLNRHQELQAEVARTTQHLNEINIKLSNEIDCRRAAEQKVEYHKNHDVNTGFLNPIAIHKHVDSLIKSETKFVLLHIHFANSRKIQQEYGYQAFDSLLIEYRSKLTKITDTSVTGRLGSSDILLIIQTDKEKLPQLCQHLSEIGQANYTANEQSLHLQTYVGAVHSKEGISRSDLLQFAYDTVVKCQSLGKTFTIADVSLPTQSSLSEHKIERYLLEAVRNHDLFLNYQPKVCPVNKKWIGCEALLRWNHPHLGAIANDVLIQLAERNGLIYELGNFALRNAIQQASEWILHSPNFVMAVNISAVQLKDPHFVTHIKQLLSLYQLPSKNLELEVTESGLISDEPLAITTLSQLNNMGISIALDDFGTGYASFQYLKKYPFSSLKIDKSFIANIEQNEDDQNIVCAMINIAKKLQLKVVVEGVENQNQEAFVVKEGIDLIQGYLYSKPISATDFEEGLFNQSSIGTPYFHFV”, the protein production was “failed”. In the case of “MQLFHKTVNRRGTHSIKWDTYKNEELIHAWIADMDFEVPQPIQTALKKRIEHPIFGYTLPPENIGDIICNWTKKQYNWDIQKEWIVFSAGIVPALSTSIQAFTKENESVLVQPPIYPPFFEMVTTNNRQLCVSPLQKQNDTYAIDFEHLEKQFQQGVKLMLLCSPHNPIGRVWKKEELTKLGSLCTKYNVIVVADEIHSDIIYADHTHTPFASLSEELAARTITCMAPSKTFNIAGLQASIIIIPNEKLRQAFTSIQYRQGFHGLNIFAYTAMQSAYTECNDWLNEIRFYIEDNAKFACEYIKDHIPTLSVMKPEGSFLLWIDCSALNLSQDERTKLLEEKGKIIVEPGEKYGLGGEEHIGINIGCPRSVLEEILNRLRHTFS”, the protein production is reported as “not failed”. With “MQLGFAMLADPILLITILLGFAMAWAIGANDAANSMSTAVGAGAITPRQAVIIAGVLEFMGAYFFGKTVTETIRKGIIDPSKITDPNVLIFGSIAALIGATIWLVIATKYGLPVSTTHSIIGGIVGYGIVYGGMSIVNWDKMIKVVLSWILSPIVGAIFAYLVFRALSKTVLQSKDPVKSAKRWSPFWIGLAFVVIGTMFYIKVLHGNSLLEGFLKYGMPAGILTFIVVSLILEKRFPATDPYLGAERVFRRVQVITSAYVALAHGANDVANAIGPVAAVYTVAMFGLAGAKVPVPRWILALGGLGIAIGVATYGYKVMETVGKKITELTNTRGFTIDFSAATVVLIASWLGMPISTTHTVVGAVIGVGLARGIKAINKDIVKDIIISWFVTVPAAGVIAGIIFKALMMLMG” the protein production was “failed”. With “MQLPPIPDNELQRLSTLKALNILDTNAEERFDRITRLTRRIFALPICVVTLVDASRQWFKSCQGLEVTETSRDISFCGHAINHDGIFIVNDAQMDPRFHDNPLVTQSPHIRFYAGYPLTIRGEYRVGTLCLIGNEPREFSADDIETLTDLGQMVEAELLSISLNTLDPLTMISNRRGFEQLAFQSLASCRRTNSQAALVFFDLDFFKELNDSFGHRKGDQVLYDFAHLLMAAFRESDVIARLGGDEFVVLLSFVKIDAVHVAIERFQSLLEQYNQQHPQQPTLVSSIGVAHWSPELDINLEDLLDAADRAMYQDKAEHHLNKPE” the protein production was “failed”. With “MQLQVMNSPFNQEQAELLNRLLPTLTESQKIWLSGYLSAQSVSAQEAAGTPAAAVSAEAPAPAVSKEVTVLYGSQTGNAQGLAENAGKQLEQSGFQVTVSSMSDFKPNQLKKVTNLLIVVSTHGEGEPPDNALSFHEFLHGRRAPKLEDLRFSVLALGDSSYEFFCQTGKEFDQRLEELGGKRISPRVDCDLDYDEPAAEWLEGVLKGLNEAGGGSAAPAPAAASQTGESSYSRTNPFRAEVLENLNLNGRGSNKETRHVELSLEGSGLTYEPGDSLGVYPENDPELVELLLKEMNWDPEEIVTLNKQGDVRPLKEALISHYEITVLTKPLLEQAAQLTGNDELRELLAPGNEENVKAYIEGRDLLDLVRDYGPFSVSAQEFVSILRKMPARLYSIASSLSANPDEVHLTIGAVRYDAHGRERKGVCSILCAERLQPGDTLPVYVQHNQNFKLPKDPETPIIMVGPGTGVAPFRSFMQEREETGAEGKAWMFFGDQHFVTDFLYQTEWQNWLKDGVLTKMDVAFSRDTEEKVYVQHRMLEHSAELFEWLQEGAAVYICGDEKHMAHDVHNTLLEIIEKEGNMSREEAEAYLADMQQQKRYQRDVY” the protein production was “failed”. For “MQLSHRPAETGDLETVAGFPQDRDELFYCYPKAIWPFSVAQLAAAIAERRGSTVAVHDGQVLGFANFYQWQHGDFCALGNMMVAPAARGLGVARYLIGVMENLAREQYKARLMKISCFNANAAGLLLYTQLGYQPRAIAERHDPDGRRVALIQMDKPLEP”, the protein production was “not failed”. For “MQMKKDFGYIRVGVASCELKVANPNYNVKSIISIMKKAYRRHHIKVLVFPELCVTGYTCGDLFNQNLLIKRAENELNNLLVSTSNINMITAVGMPVKADNQLFNCAVIINNGNILGVVPKTFIPTYNEFYEKRNFAGAISRISDEIILCGKKVPFGENLLFKDIYSELCIGIDICEDLWVNIPPSSYHTLNGANLILNLSASDEIVAKSDYRRDLVRLQSAKCITSYAYASSGQTESTSDLVFSGHSIIADNGSILKDIKFEEASYVKYADVDIEKLISDRIKFNTYMGRIEDKEYRTINFHLGYNENMHLERYVEASPFVPSNKSKRNIRCREILDLQASGLYQRLNKTGINKAVVGISGGLDSTLALLVIVEAFKKLKAPMKNIIGITMPGFGTTRRTYNNAVELMKKLGITIKEISIKKACIQHFNDIGQDLNTHDTIYENSQARERTQILMDIANKEGAIVVGTGDLSELALGWCTYNGDQMSMYGVNSSIPKTLVKYLIMWYAEASKDNDIRNILLDIYNTPVSPELLPPDKEGNIKQKTEDLIGSYELNDFFLYNMLRSGYEPLKILYLANIAFKDKYSEDVIHSALKNFYKRFFTQQFKRNCMPDGVKIGSVSLSPRGDLRMPSDASYGLWMDEL”, the protein production was “failed”. In the case of “MQMLRNLSTRTRSRRGGYERVSDDSTFSLLGAKLRRSTSVPYYAPSIRLGGDFPVILEKLPRQKPTKTVVTSKLSHPIFSLFDGYRRHNKKKATAKPEFSRYHEYLKESGMWDLRSNSPVIYFK”, the protein production is reported as “failed”. With “MQNIARNISNRLAGFVYRQMRKAHANANSTVGYSVNANGALLAGCVIDCRSGKSDGRVFFGKDSVLSCRIVLERDVGTVHIGNDSYVGGSQIICADHIEIGNNVLISWGCTIVDHDSHSVDWRNRAEDVRKWREGLLSGGLEKASESKDWAVVEKAPIKIGDKTWLGMNVTVLKGITIGEGAVVAAGSVVTKDVDPWTLVAGNPARVIKELPKS” the protein production was “failed”.
